Article PMC11254670, “Soluble CD72, is a T-cell activator probably via binding to CD6 in homeostasis and autoimmunity” (Frontiers in Immunology, 2024)

Target: T1, CD6 (human (endogenous in CD4+ T cells), UniProt P30203 18-668)
T1 sequence (looked up): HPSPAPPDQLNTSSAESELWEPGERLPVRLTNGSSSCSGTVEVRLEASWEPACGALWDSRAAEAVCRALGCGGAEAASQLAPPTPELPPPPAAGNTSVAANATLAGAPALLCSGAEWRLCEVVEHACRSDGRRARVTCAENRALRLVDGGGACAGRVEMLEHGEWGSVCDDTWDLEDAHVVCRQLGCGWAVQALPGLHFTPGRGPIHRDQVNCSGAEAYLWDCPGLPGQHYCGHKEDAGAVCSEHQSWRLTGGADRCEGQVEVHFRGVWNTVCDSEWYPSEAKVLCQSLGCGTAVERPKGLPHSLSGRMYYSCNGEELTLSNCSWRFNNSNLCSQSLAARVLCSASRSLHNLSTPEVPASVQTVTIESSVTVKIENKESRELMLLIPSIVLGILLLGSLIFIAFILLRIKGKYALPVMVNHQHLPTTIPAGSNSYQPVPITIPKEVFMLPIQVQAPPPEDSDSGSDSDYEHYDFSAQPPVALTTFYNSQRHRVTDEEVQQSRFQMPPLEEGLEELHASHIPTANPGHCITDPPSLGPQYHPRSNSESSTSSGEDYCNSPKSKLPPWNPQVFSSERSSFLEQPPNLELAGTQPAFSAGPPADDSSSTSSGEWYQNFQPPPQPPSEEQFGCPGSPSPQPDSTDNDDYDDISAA
Assay: cell-based or functional assay

B1: soluble CD72 (extracellular part of human CD72, amino acids 117-359, V5 and 8xHis tagged) (domain or fragment, UniProt P21854 117-359, looked up)
chain: RYLQVSQQLQQTNRVLEVTNSSLRQQLRLKITQLGQSAEDLQGSRRELAQSQEALQVEQRAHQAAEGQLQACQADRQKTKETLQSEEQQRRALEQKLSNMENRLKPFFTCGSADTCCPSGWIMHQKSCFYISLTSKNWQESQKQCETLSSKLATFSEIYPQSHSYYFLNSLLPNGGSGNSYWTGLSSNKDWKLTDDTQRTRTYAQSSKCNKVHKTWSWWTLESESCRSSLPYICEMTAFRFPD
  phosphorylation of SLP-76 (Ser376), phospho/total ratio by western blot, activated CD4+ T cells stimulated with 2 ug/ml sCD72 against control: ~2 fold
